Measurements published in publication PMC5383425, “Differential CLE peptide perception by plant receptors implicated from structural and functional analyses of TDIF-TDR interactions” (PLoS ONE, 2017).
Square brackets hold non-standard residues; d marks the D form. Ends that are not written are not given here. Hyp = O=C(O)[C@@H]1C[C@@H](O)CN1

Legend:
Assay in all cases: ITC; 0.5–1 mM peptide titrated into 10–40 μM ecdTDR; 25°C; 10 mM sodium citrate, 100 mM NaCl, pH 5.5; fitted to one set of binding sites; MicroCal Auto-iTC200
Settings in all cases: both partners purified
[1] = target: T1, ecdTDR R423A mutant (Arabidopsis thaliana, UniProt Q9FII5 30-642, R423A)
T1 construct: TDR/PXY of A. thaliana, extracellular domain, residues 30-642; source: High Five insect cells (baculovirus), secreted, purified as the wild type (Ni-NTA, size-exclusion chromatography)
T1 sequence (looked up): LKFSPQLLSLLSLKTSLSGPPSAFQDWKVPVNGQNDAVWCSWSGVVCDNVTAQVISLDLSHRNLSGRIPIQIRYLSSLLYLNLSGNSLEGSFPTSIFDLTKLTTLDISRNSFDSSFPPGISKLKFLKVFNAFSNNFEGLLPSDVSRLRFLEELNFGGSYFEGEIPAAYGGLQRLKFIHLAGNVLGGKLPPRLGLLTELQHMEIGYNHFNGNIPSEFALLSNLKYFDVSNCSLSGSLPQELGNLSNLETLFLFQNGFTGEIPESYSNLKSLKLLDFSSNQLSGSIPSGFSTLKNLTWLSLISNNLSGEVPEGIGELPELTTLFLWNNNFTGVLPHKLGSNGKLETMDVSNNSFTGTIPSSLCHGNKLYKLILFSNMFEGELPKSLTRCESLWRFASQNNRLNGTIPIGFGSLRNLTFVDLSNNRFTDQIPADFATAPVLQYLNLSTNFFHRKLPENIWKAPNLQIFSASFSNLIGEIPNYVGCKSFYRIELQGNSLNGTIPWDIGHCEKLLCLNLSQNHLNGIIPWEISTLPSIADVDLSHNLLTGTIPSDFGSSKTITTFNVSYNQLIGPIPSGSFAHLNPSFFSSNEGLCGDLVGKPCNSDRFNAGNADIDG

[2] = target: T2, ecdTDR S162A mutant (Arabidopsis thaliana, UniProt Q9FII5 30-642, S162A)
T2 construct: TDR/PXY of A. thaliana, extracellular domain, residues 30-642; source: High Five insect cells (baculovirus), secreted, purified as the wild type (Ni-NTA, size-exclusion chromatography)
T2 sequence (looked up): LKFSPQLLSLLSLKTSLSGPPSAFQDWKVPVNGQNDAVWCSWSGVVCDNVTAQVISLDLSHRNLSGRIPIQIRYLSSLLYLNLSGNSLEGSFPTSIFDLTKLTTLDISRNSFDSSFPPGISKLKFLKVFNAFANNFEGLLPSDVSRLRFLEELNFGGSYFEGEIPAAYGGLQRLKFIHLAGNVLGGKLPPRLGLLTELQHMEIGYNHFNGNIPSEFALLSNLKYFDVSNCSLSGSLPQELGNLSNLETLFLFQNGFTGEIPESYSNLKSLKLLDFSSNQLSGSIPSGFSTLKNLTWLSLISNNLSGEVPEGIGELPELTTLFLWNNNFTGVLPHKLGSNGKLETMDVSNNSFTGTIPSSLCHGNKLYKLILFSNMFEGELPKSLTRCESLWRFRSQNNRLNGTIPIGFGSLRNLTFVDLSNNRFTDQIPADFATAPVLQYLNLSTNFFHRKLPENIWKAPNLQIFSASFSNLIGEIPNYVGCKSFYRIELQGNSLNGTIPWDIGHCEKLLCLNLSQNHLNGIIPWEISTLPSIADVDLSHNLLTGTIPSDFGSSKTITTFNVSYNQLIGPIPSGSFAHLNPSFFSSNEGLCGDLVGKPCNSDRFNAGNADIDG

[3] = target: T3, ecdTDR mutant with all five N-terminal anchoring site-binding residues replaced by alanine (Arabidopsis thaliana, UniProt Q9FII5 30-642)
T3 chain: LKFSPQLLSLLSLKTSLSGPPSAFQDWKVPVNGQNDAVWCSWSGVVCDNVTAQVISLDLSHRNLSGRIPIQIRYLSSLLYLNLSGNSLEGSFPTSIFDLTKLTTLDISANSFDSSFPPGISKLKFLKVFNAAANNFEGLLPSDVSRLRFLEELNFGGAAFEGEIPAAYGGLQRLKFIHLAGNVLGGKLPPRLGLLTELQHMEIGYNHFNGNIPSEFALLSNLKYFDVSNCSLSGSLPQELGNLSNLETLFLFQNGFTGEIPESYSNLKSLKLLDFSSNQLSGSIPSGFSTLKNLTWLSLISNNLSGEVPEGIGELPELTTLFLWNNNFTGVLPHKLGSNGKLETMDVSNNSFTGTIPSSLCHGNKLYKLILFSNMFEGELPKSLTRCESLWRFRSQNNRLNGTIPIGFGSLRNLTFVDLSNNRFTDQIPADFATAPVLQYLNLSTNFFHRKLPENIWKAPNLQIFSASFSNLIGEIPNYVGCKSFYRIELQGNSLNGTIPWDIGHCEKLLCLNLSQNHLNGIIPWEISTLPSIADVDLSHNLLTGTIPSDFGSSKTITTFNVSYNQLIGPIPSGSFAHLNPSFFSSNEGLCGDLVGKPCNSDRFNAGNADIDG

[4] = target: T4, ecdTDR W353A mutant (Arabidopsis thaliana, UniProt Q9FII5 30-642, W353A)
T4 construct: TDR/PXY of A. thaliana, extracellular domain, residues 30-642; source: High Five insect cells (baculovirus), secreted, purified as the wild type (Ni-NTA, size-exclusion chromatography)
T4 sequence (looked up): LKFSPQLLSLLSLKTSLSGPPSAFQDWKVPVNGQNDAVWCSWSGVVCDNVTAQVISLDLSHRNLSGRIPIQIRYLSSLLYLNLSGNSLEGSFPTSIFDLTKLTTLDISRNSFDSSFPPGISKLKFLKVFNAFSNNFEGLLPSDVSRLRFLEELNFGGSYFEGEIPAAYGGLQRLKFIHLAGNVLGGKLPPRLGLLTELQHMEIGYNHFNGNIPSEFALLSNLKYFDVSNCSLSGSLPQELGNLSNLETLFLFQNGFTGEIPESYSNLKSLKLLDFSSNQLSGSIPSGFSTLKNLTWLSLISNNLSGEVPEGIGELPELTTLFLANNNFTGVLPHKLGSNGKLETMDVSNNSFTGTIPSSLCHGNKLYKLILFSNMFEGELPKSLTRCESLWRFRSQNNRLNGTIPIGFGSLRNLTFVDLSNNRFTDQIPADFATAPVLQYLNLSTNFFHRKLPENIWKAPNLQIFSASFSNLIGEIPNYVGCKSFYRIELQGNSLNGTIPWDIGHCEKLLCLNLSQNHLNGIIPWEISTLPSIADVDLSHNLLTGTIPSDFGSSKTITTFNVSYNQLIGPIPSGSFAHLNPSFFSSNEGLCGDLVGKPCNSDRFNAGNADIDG

B1: Tracheary Element Differentiation Inhibitory Factor (TDIF) peptide (peptide)
peptide: HEV[Hyp]SG[Hyp]NPISN
notes: TDIF, the 12-residue CLE peptide processed from CLE41 and CLE44 of A. thaliana; printed as HEV(Hyp)SG(Hyp)NPISN; numbers count on: the 12-residue peptide; CLE44 encodes the same peptide; also called wild type TDIF; wtTDIF; source: synthetic peptide (peptide 2.0)
Does B1 bind [1]?
Result: binds

Does B1 bind [2]?
Result: binds

And the “fold decrease in affinity against wild-type ecdTDR” value [3]?
The value was 31.4 fold.

What about the “fold lower binding than wild-type ecdTDR” value [4] of the same binder?
Its value is 8.4 fold.
